{
  "source": "paper PMC10881151",
  "key": {"[1]": {"biological_target": "Drp1-S579D (phosphomimetic mutant of human DRP1 isoform 3) (human)", "assay": "co-sedimentation"}, "[2]": {"biological_target": "Drp1-S600D (phosphomimetic mutant of human DRP1 isoform 3) (human)", "assay": "co-sedimentation"}},
  "data": [
    {"substance": "MFF-∆TM (truncated human MFF isoform 4) (from UniProt Q9GZY8-4 1-218) (domain or fragment)", "values": [
      {"measurement": "percent less Drp1 and Mff in the pellets than for Drp1-WT", "setting": "[1]", "value": 50, "unit": "%"},
      {"measurement": "percent less Drp1 and Mff in the pellets than for Drp1-WT", "setting": "[2]", "value": 50, "unit": "%"}
    ]}
  ]
}
